Patent US20040265295

Columns and labels:
[1] = test system: His-PIPKIγ661 C-terminus (439-661) Tyr644 to Phe mutant
[2] = test system: His-PIPKIγ661 C-terminus, wild-type (439-661)
[3] = test system: His-PIPKIγ661 C-terminus (439-661) Tyr649 to Phe mutant
[4] = test system: His-PIPKIγ661 C-terminus (439-661) Tyr644/649 to Phe mutant
Sequence of His-PIPKIγ661 C-terminus (439-661) Tyr644/649 to Phe mutant (chain, as listed by the source mutant): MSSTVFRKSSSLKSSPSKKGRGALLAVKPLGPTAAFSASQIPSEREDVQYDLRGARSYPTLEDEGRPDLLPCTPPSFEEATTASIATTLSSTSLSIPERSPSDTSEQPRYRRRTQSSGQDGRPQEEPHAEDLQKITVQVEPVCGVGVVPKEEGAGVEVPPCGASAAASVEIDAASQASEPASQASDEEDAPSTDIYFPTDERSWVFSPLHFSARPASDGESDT

Sequence of His-PIPKIγ661 C-terminus, wild-type (439-661) (chain, as listed by the source): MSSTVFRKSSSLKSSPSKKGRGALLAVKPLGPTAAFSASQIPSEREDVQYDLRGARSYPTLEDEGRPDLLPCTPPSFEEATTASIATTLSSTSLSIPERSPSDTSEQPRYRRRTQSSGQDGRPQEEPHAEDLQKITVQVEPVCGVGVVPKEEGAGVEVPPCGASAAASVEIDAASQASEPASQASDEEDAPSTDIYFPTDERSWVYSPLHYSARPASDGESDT
Sequence of His-PIPKIγ661 C-terminus (439-661) Tyr649 to Phe mutant (chain, as listed by the source mutant): as the sequence (chain, as listed by the source) above, with Y211F counted along it
Sequence of His-PIPKIγ661 C-terminus (439-661) Tyr644 to Phe mutant (chain, as listed by the source mutant): as the sequence (chain, as listed by the source) above, with Y206F counted along it

c-SrcTyr527Phe
in vitro kinase assay, phosphorylation of the recombinant substrate [1]: not efficiently phosphorylated by c-Src in vitro compared with wild-type
in vitro kinase assay, phosphorylation of the recombinant substrate [2]: c-Src directly phosphorylated recombinant PIPKIγ661 tail
in vitro kinase assay, phosphorylation of the recombinant substrate [3]: PIPKIγTyr^649->Phe is efficiently phosphorylated by c-Src
in vitro kinase assay, phosphorylation of the recombinant substrate [4]: not efficiently phosphorylated by c-Src in vitro compared with wild-type
